Data from US20220168396A1, “MULTI-RECEPTOR AGONIST AND MEDICAL USE THEREOF” (published 2022).
Square brackets hold non-standard residues; d marks the D form. Ends that are not written are not given here. Aib = CC(C)(N)C(=O)O

T1: human glucose-dependent insulinotropic peptide receptor (human, UniProt P48546)
T1 sequence: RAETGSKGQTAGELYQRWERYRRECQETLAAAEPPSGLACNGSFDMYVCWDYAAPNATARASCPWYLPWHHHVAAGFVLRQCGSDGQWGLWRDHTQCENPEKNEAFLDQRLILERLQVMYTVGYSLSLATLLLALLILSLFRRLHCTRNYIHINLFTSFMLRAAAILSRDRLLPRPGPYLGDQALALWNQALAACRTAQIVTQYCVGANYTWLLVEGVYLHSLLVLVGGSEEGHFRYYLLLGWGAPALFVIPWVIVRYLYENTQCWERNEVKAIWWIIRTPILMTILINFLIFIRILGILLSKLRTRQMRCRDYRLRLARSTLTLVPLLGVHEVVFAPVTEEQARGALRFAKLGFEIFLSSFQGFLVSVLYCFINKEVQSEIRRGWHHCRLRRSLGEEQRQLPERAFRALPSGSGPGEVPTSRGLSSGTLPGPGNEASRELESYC

B1: Compound No. 5 (peptide)
peptide: H[Aib]EGTFTSDVSSYLEEEAAKEFVNWLLAGGPSSGAPPPSK-NH2
modifications: N-terminus assumed
SMILES: CC(C)C[C@H](NC(=O)[C@H](CC(C)C)NC(=O)[C@H](Cc1c[nH]c2ccccc12)NC(=O)[C@H](CC(N)=O)NC(=O)[C@@H](NC(=O)[C@H](Cc1ccccc1)NC(=O)[C@H](CCC(=O)O)NC(=O)[C@H](CCCCN)NC(=O)[C@H](C)NC(=O)[C@H](C)NC(=O)[C@H](CCC(=O)O)NC(=O)[C@H](CCC(=O)O)NC(=O)[C@H](CCC(=O)O)NC(=O)[C@H](CC(C)C)NC(=O)[C@H](Cc1ccc(O)cc1)NC(=O)[C@H](CO)NC(=O)[C@H](CO)NC(=O)[C@@H](NC(=O)[C@H](CC(=O)O)NC(=O)[C@H](CO)NC(=O)[C@@H](NC(=O)[C@H](Cc1ccccc1)NC(=O)[C@@H](NC(=O)CNC(=O)[C@H](CCC(=O)O)NC(=O)C(C)(C)NC(=O)[C@@H](N)Cc1c[nH]cn1)[C@@H](C)O)[C@@H](C)O)C(C)C)C(C)C)C(=O)N[C@@H](C)C(=O)NCC(=O)NCC(=O)N1CCC[C@H]1C(=O)N[C@@H](CO)C(=O)N[C@@H](CO)C(=O)NCC(=O)N[C@@H](C)C(=O)N1CCC[C@H]1C(=O)N1CCC[C@H]1C(=O)N1CCC[C@H]1C(=O)N[C@@H](CO)C(=O)N[C@@H](CCCCN)C(N)=O
B2: Compound No. 9 (peptide)
peptide: Y[Aib]EGTFTSDYSIYLEKEAAKEFVNWLLAGGPSSGAPPPSK-NH2
modifications: N-terminus assumed
SMILES: CC[C@H](C)[C@H](NC(=O)[C@H](CO)NC(=O)[C@H](Cc1ccc(O)cc1)NC(=O)[C@H](CC(=O)O)NC(=O)[C@H](CO)NC(=O)[C@@H](NC(=O)[C@H](Cc1ccccc1)NC(=O)[C@@H](NC(=O)CNC(=O)[C@H](CCC(=O)O)NC(=O)C(C)(C)NC(=O)[C@@H](N)Cc1ccc(O)cc1)[C@@H](C)O)[C@@H](C)O)C(=O)N[C@@H](Cc1ccc(O)cc1)C(=O)N[C@@H](CC(C)C)C(=O)N[C@@H](CCC(=O)O)C(=O)N[C@@H](CCCCN)C(=O)N[C@@H](CCC(=O)O)C(=O)N[C@@H](C)C(=O)N[C@@H](C)C(=O)N[C@@H](CCCCN)C(=O)N[C@@H](CCC(=O)O)C(=O)N[C@@H](Cc1ccccc1)C(=O)N[C@H](C(=O)N[C@@H](CC(N)=O)C(=O)N[C@@H](Cc1c[nH]c2ccccc12)C(=O)N[C@@H](CC(C)C)C(=O)N[C@@H](CC(C)C)C(=O)N[C@@H](C)C(=O)NCC(=O)NCC(=O)N1CCC[C@H]1C(=O)N[C@@H](CO)C(=O)N[C@@H](CO)C(=O)NCC(=O)N[C@@H](C)C(=O)N1CCC[C@H]1C(=O)N1CCC[C@H]1C(=O)N1CCC[C@H]1C(=O)N[C@@H](CO)C(=O)N[C@@H](CCCCN)C(N)=O)C(C)C
B3: Compound No. 8 (peptide)
peptide: Y[Aib]EGTFTSDVSIYLEKEAAEEFVNWLLAGGPSSGAPPPSK-NH2
modifications: N-terminus assumed
SMILES: CC[C@H](C)[C@H](NC(=O)[C@H](CO)NC(=O)[C@@H](NC(=O)[C@H](CC(=O)O)NC(=O)[C@H](CO)NC(=O)[C@@H](NC(=O)[C@H](Cc1ccccc1)NC(=O)[C@@H](NC(=O)CNC(=O)[C@H](CCC(=O)O)NC(=O)C(C)(C)NC(=O)[C@@H](N)Cc1ccc(O)cc1)[C@@H](C)O)[C@@H](C)O)C(C)C)C(=O)N[C@@H](Cc1ccc(O)cc1)C(=O)N[C@@H](CC(C)C)C(=O)N[C@@H](CCC(=O)O)C(=O)N[C@@H](CCCCN)C(=O)N[C@@H](CCC(=O)O)C(=O)N[C@@H](C)C(=O)N[C@@H](C)C(=O)N[C@@H](CCC(=O)O)C(=O)N[C@@H](CCC(=O)O)C(=O)N[C@@H](Cc1ccccc1)C(=O)N[C@H](C(=O)N[C@@H](CC(N)=O)C(=O)N[C@@H](Cc1c[nH]c2ccccc12)C(=O)N[C@@H](CC(C)C)C(=O)N[C@@H](CC(C)C)C(=O)N[C@@H](C)C(=O)NCC(=O)NCC(=O)N1CCC[C@H]1C(=O)N[C@@H](CO)C(=O)N[C@@H](CO)C(=O)NCC(=O)N[C@@H](C)C(=O)N1CCC[C@H]1C(=O)N1CCC[C@H]1C(=O)N1CCC[C@H]1C(=O)N[C@@H](CO)C(=O)N[C@@H](CCCCN)C(N)=O)C(C)C
B4: Compound No. 6 (peptide)
peptide: Y[Aib]EGTFTSDVSSYLEEEAAKEFVNWLLAGGPSSGAPPPSK-NH2
modifications: N-terminus assumed
SMILES: CC(C)C[C@H](NC(=O)[C@H](CC(C)C)NC(=O)[C@H](Cc1c[nH]c2ccccc12)NC(=O)[C@H](CC(N)=O)NC(=O)[C@@H](NC(=O)[C@H](Cc1ccccc1)NC(=O)[C@H](CCC(=O)O)NC(=O)[C@H](CCCCN)NC(=O)[C@H](C)NC(=O)[C@H](C)NC(=O)[C@H](CCC(=O)O)NC(=O)[C@H](CCC(=O)O)NC(=O)[C@H](CCC(=O)O)NC(=O)[C@H](CC(C)C)NC(=O)[C@H](Cc1ccc(O)cc1)NC(=O)[C@H](CO)NC(=O)[C@H](CO)NC(=O)[C@@H](NC(=O)[C@H](CC(=O)O)NC(=O)[C@H](CO)NC(=O)[C@@H](NC(=O)[C@H](Cc1ccccc1)NC(=O)[C@@H](NC(=O)CNC(=O)[C@H](CCC(=O)O)NC(=O)C(C)(C)NC(=O)[C@@H](N)Cc1ccc(O)cc1)[C@@H](C)O)[C@@H](C)O)C(C)C)C(C)C)C(=O)N[C@@H](C)C(=O)NCC(=O)NCC(=O)N1CCC[C@H]1C(=O)N[C@@H](CO)C(=O)N[C@@H](CO)C(=O)NCC(=O)N[C@@H](C)C(=O)N1CCC[C@H]1C(=O)N1CCC[C@H]1C(=O)N1CCC[C@H]1C(=O)N[C@@H](CO)C(=O)N[C@@H](CCCCN)C(N)=O
B5: Compound No. 10 (peptide)
peptide: Y[Aib]EGTFTSDYSIYLEKEAAQEFVNWLLAGGPSSGAPPPSK-NH2
modifications: N-terminus assumed
SMILES: CC[C@H](C)[C@H](NC(=O)[C@H](CO)NC(=O)[C@H](Cc1ccc(O)cc1)NC(=O)[C@H](CC(=O)O)NC(=O)[C@H](CO)NC(=O)[C@@H](NC(=O)[C@H](Cc1ccccc1)NC(=O)[C@@H](NC(=O)CNC(=O)[C@H](CCC(=O)O)NC(=O)C(C)(C)NC(=O)[C@@H](N)Cc1ccc(O)cc1)[C@@H](C)O)[C@@H](C)O)C(=O)N[C@@H](Cc1ccc(O)cc1)C(=O)N[C@@H](CC(C)C)C(=O)N[C@@H](CCC(=O)O)C(=O)N[C@@H](CCCCN)C(=O)N[C@@H](CCC(=O)O)C(=O)N[C@@H](C)C(=O)N[C@@H](C)C(=O)N[C@@H](CCC(N)=O)C(=O)N[C@@H](CCC(=O)O)C(=O)N[C@@H](Cc1ccccc1)C(=O)N[C@H](C(=O)N[C@@H](CC(N)=O)C(=O)N[C@@H](Cc1c[nH]c2ccccc12)C(=O)N[C@@H](CC(C)C)C(=O)N[C@@H](CC(C)C)C(=O)N[C@@H](C)C(=O)NCC(=O)NCC(=O)N1CCC[C@H]1C(=O)N[C@@H](CO)C(=O)N[C@@H](CO)C(=O)NCC(=O)N[C@@H](C)C(=O)N1CCC[C@H]1C(=O)N1CCC[C@H]1C(=O)N1CCC[C@H]1C(=O)N[C@@H](CO)C(=O)N[C@@H](CCCCN)C(N)=O)C(C)C
B6: Compound No. 4 (peptide)
peptide: Y[Aib]EGTFTSDVSSYLEEIHQKEFIAWLVRGGPSSGAPPPSK-NH2
modifications: N-terminus assumed
SMILES: CC[C@H](C)[C@H](NC(=O)[C@H](Cc1ccccc1)NC(=O)[C@H](CCC(=O)O)NC(=O)[C@H](CCCCN)NC(=O)[C@H](CCC(N)=O)NC(=O)[C@H](Cc1c[nH]cn1)NC(=O)[C@@H](NC(=O)[C@H](CCC(=O)O)NC(=O)[C@H](CCC(=O)O)NC(=O)[C@H](CC(C)C)NC(=O)[C@H](Cc1ccc(O)cc1)NC(=O)[C@H](CO)NC(=O)[C@H](CO)NC(=O)[C@@H](NC(=O)[C@H](CC(=O)O)NC(=O)[C@H](CO)NC(=O)[C@@H](NC(=O)[C@H](Cc1ccccc1)NC(=O)[C@@H](NC(=O)CNC(=O)[C@H](CCC(=O)O)NC(=O)C(C)(C)NC(=O)[C@@H](N)Cc1ccc(O)cc1)[C@@H](C)O)[C@@H](C)O)C(C)C)[C@@H](C)CC)C(=O)N[C@@H](C)C(=O)N[C@@H](Cc1c[nH]c2ccccc12)C(=O)N[C@@H](CC(C)C)C(=O)N[C@H](C(=O)N[C@@H](CCCNC(=N)N)C(=O)NCC(=O)NCC(=O)N1CCC[C@H]1C(=O)N[C@@H](CO)C(=O)N[C@@H](CO)C(=O)NCC(=O)N[C@@H](C)C(=O)N1CCC[C@H]1C(=O)N1CCC[C@H]1C(=O)N1CCC[C@H]1C(=O)N[C@@H](CO)C(=O)N[C@@H](CCCCN)C(N)=O)C(C)C

How the values were obtained:
[1] = target: human glucagon-like peptide-1 receptor (human, UniProt P43220); experiment: cell-based or functional assay
[2] = target: T1, human glucose-dependent insulinotropic …; experiment: cell-based or functional assay

Binder | Activity for human GLP-1R (EC50 nM), cAMP HTRF [1] | Activity for human GIPR (EC50 nM), cAMP HTRF [2]
B1 | 0.004 nM | > 10 nM
B2 | 0.011 nM | 0.018 nM
B3 | 0.07 nM | 0.12 nM
B4 | 0.128 nM | 2.1 nM
B5 | 0.097 nM | 0.006 nM
B6 | 0.43 nM | > 10 nM
